Measured values from the supplement of paper PMC9112550, “Optimization of the antimicrobial peptide Bac7 by deep mutational scanning” (BMC Biology, 2022).

Tested on: Escherichia coli TOP10
Test: shrunken log2 fold change of peptide-encoding DNA abundance (4.5 h post-induction vs induction); higher = less antimicrobial activity (less host growth inhibition)
Settings: time post-induction: 4.5 h; library: site-saturation at positions 5, 18, 19, 20
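Note: peptides expressed intracellularly from a pBAD plasmid library in pooled LB shake-flask culture, induced with 0.3% L-arabinose, DNA abundance read by NGS, three biological replicates, DESeq2 with apeglm shrinkage.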

Row | Sequence | shrunken log2 fold change
1 | RRIRERPPRLPRPRPRPAYKPRP | -0.21
2 | RRIRERPPRLPRPRPRPAYMPRP | -0.505
3 | RRIRERPPRLPRPRPRPCAQPRP | -0.00638
4 | RRIRERPPRLPRPRPRPCCTPRP | -0.243
5 | RRIRERPPRLPRPRPRPCHFPRP | 0.161
6 | RRIRERPPRLPRPRPRPCIEPRP | -0.155
7 | RRIRERPPRLPRPRPRPCIYPRP | -0.328
8 | RRIRERPPRLPRPRPRPCLHPRP | -0.0164
9 | RRIRERPPRLPRPRPRPCMKPRP | -0.506
10 | RRIRERPPRLPRPRPRPCMMPRP | -0.058
11 | RRIRERPPRLPRPRPRPCMNPRP | -0.341
12 | RRIRERPPRLPRPRPRPCQRPRP | 0.0562
13 | RRIRERPPRLPRPRPRPCREPRP | -0.129
14 | RRIRERPPRLPRPRPRPCRKPRP | -0.103
15 | RRIRERPPRLPRPRPRPCRRPRP | 0.0646
16 | RRIRERPPRLPRPRPRPCRTPRP | -0.203
17 | RRIRERPPRLPRPRPRPCTNPRP | -0.559
18 | RRIRERPPRLPRPRPRPCTQPRP | -0.00926
19 | RRIRERPPRLPRPRPRPCVMPRP | -0.41
20 | RRIRERPPRLPRPRPRPCWWPRP | 0.288
21 | RRIRERPPRLPRPRPRPDDAPRP | -0.179
22 | RRIRERPPRLPRPRPRPDDWPRP | -0.0125
23 | RRIRERPPRLPRPRPRPDFLPRP | 0.0309
24 | RRIRERPPRLPRPRPRPDFYPRP | -0.491
25 | RRIRERPPRLPRPRPRPDGDPRP | 0.03

Row | Sequence | shrunken log2 fold change
26 | RRIRERPPRLPRPRPRPDHIPRP | -0.537
27 | RRIRERPPRLPRPRPRPDKQPRP | 0.0325
28 | RRIRERPPRLPRPRPRPDLGPRP | -0.0853
29 | RRIRERPPRLPRPRPRPDMFPRP | -0.0153
30 | RRIRERPPRLPRPRPRPDMIPRP | 0.0157
31 | RRIRERPPRLPRPRPRPDPRPRP | 0.768
32 | RRIRERPPRLPRPRPRPDQMPRP | -0.161
33 | RRIRERPPRLPRPRPRPDQNPRP | -0.108
34 | RRIRERPPRLPRPRPRPDSRPRP | -0.0302
35 | RRIRERPPRLPRPRPRPDTVPRP | 0.37
36 | RRIRERPPRLPRPRPRPDVCPRP | -0.239
37 | RRIRERPPRLPRPRPRPDVKPRP | -0.213
38 | RRIRERPPRLPRPRPRPDVSPRP | 0.0276
39 | RRIRERPPRLPRPRPRPDWHPRP | -0.12
40 | RRIRERPPRLPRPRPRPDWIPRP | -0.126
41 | RRIRERPPRLPRPRPRPDWPPRP | 0.108
42 | RRIRERPPRLPRPRPRPDYRPRP | -0.285
43 | RRIRERPPRLPRPRPRPEAPPRP | 0.406
44 | RRIRERPPRLPRPRPRPEDTPRP | -0.343
45 | RRIRERPPRLPRPRPRPEEHPRP | -0.0183
46 | RRIRERPPRLPRPRPRPEERPRP | 0.0375
47 | RRIRERPPRLPRPRPRPEEYPRP | -0.4
48 | RRIRERPPRLPRPRPRPEGAPRP | 0.592
49 | RRIRERPPRLPRPRPRPEIDPRP | -0.00826
50 | RRIRERPPRLPRPRPRPEIIPRP | 0.0655

Row | Sequence | shrunken log2 fold change
51 | RRIRERPPRLPRPRPRPEILPRP | -0.159
52 | RRIRERPPRLPRPRPRPEKDPRP | -0.137
53 | RRIRERPPRLPRPRPRPELNPRP | -0.119
54 | RRIRERPPRLPRPRPRPEMFPRP | 0.232
55 | RRIRERPPRLPRPRPRPEMMPRP | -0.269
56 | RRIRERPPRLPRPRPRPEMVPRP | -0.0371
57 | RRIRERPPRLPRPRPRPENKPRP | -0.697
58 | RRIRERPPRLPRPRPRPENSPRP | -0.0336
59 | RRIRERPPRLPRPRPRPEPIPRP | -0.00736
60 | RRIRERPPRLPRPRPRPEPKPRP | 0.0877
61 | RRIRERPPRLPRPRPRPEPVPRP | -0.00161
62 | RRIRERPPRLPRPRPRPEQQPRP | -0.0255
63 | RRIRERPPRLPRPRPRPEQVPRP | -0.0135
64 | RRIRERPPRLPRPRPRPEQYPRP | -0.14
65 | RRIRERPPRLPRPRPRPERLPRP | 0.171
66 | RRIRERPPRLPRPRPRPESNPRP | -0.65
67 | RRIRERPPRLPRPRPRPESRPRP | -0.0773
68 | RRIRERPPRLPRPRPRPESSPRP | -0.192
69 | RRIRERPPRLPRPRPRPETAPRP | 0.0892
70 | RRIRERPPRLPRPRPRPETHPRP | 0.178
71 | RRIRERPPRLPRPRPRPEVEPRP | -0.0864
72 | RRIRERPPRLPRPRPRPEVGPRP | 0.0848
73 | RRIRERPPRLPRPRPRPEVNPRP | -0.0365
74 | RRIRERPPRLPRPRPRPEYFPRP | -0.0105
75 | RRIRERPPRLPRPRPRPEYTPRP | -0.313

Row | Sequence | shrunken log2 fold change
76 | RRIRERPPRLPRPRPRPFAEPRP | -0.326
77 | RRIRERPPRLPRPRPRPFAPPRP | 0.117
78 | RRIRERPPRLPRPRPRPFCSPRP | -0.204
79 | RRIRERPPRLPRPRPRPFDLPRP | -0.504
80 | RRIRERPPRLPRPRPRPFDNPRP | 3.45
81 | RRIRERPPRLPRPRPRPFEKPRP | 0.00177
82 | RRIRERPPRLPRPRPRPFFRPRP | -0.112
83 | RRIRERPPRLPRPRPRPFGGPRP | -0.0945
84 | RRIRERPPRLPRPRPRPFGKPRP | -0.01
85 | RRIRERPPRLPRPRPRPFGLPRP | -0.0181
86 | RRIRERPPRLPRPRPRPFGTPRP | -0.135
87 | RRIRERPPRLPRPRPRPFHFPRP | -0.787
88 | RRIRERPPRLPRPRPRPFIFPRP | -0.476
89 | RRIRERPPRLPRPRPRPFLHPRP | -0.332
90 | RRIRERPPRLPRPRPRPFLIPRP | -0.728
91 | RRIRERPPRLPRPRPRPFLNPRP | -0.0647
92 | RRIRERPPRLPRPRPRPFLTPRP | -0.506
93 | RRIRERPPRLPRPRPRPFLVPRP | -0.119
94 | RRIRERPPRLPRPRPRPFMTPRP | -0.438
95 | RRIRERPPRLPRPRPRPFPEPRP | -0.426
96 | RRIRERPPRLPRPRPRPFPGPRP | -0.0108
97 | RRIRERPPRLPRPRPRPFRIPRP | -0.367
98 | RRIRERPPRLPRPRPRPFRSPRP | -0.0241
99 | RRIRERPPRLPRPRPRPFSEPRP | 0.0188
100 | RRIRERPPRLPRPRPRPFSFPRP | 0.122

Row | Sequence | shrunken log2 fold change
101 | RRIRERPPRLPRPRPRPFSSPRP | -0.0152
102 | RRIRERPPRLPRPRPRPFVGPRP | -0.143
103 | RRIRERPPRLPRPRPRPFVMPRP | -0.345
104 | RRIRERPPRLPRPRPRPFVYPRP | -0.123
105 | RRIRERPPRLPRPRPRPFYPPRP | -0.834
106 | RRIRERPPRLPRPRPRPGCIPRP | -1.12
107 | RRIRERPPRLPRPRPRPGCKPRP | 0.0591
108 | RRIRERPPRLPRPRPRPGCMPRP | -0.00389
109 | RRIRERPPRLPRPRPRPGDGPRP | 0.389
110 | RRIRERPPRLPRPRPRPGEAPRP | 0.139
111 | RRIRERPPRLPRPRPRPGERPRP | 0.104
112 | RRIRERPPRLPRPRPRPGFNPRP | 0.0108
113 | RRIRERPPRLPRPRPRPGFRPRP | 0.231
114 | RRIRERPPRLPRPRPRPGHDPRP | -0.449
115 | RRIRERPPRLPRPRPRPGHHPRP | -0.261
116 | RRIRERPPRLPRPRPRPGIFPRP | 0.099
117 | RRIRERPPRLPRPRPRPGLEPRP | -0.114
118 | RRIRERPPRLPRPRPRPGLSPRP | -0.113
119 | RRIRERPPRLPRPRPRPGNQPRP | -0.00399
120 | RRIRERPPRLPRPRPRPGPKPRP | -0.00801
121 | RRIRERPPRLPRPRPRPGPPPRP | 0.317
122 | RRIRERPPRLPRPRPRPGQGPRP | -0.132
123 | RRIRERPPRLPRPRPRPGQKPRP | 0.2
124 | RRIRERPPRLPRPRPRPGQTPRP | -0.0328
125 | RRIRERPPRLPRPRPRPGRKPRP | -0.12

Row | Sequence | shrunken log2 fold change
126 | RRIRERPPRLPRPRPRPGRQPRP | 0.0676
127 | RRIRERPPRLPRPRPRPGSIPRP | 0.0371
128 | RRIRERPPRLPRPRPRPGTIPRP | -0.386
129 | RRIRERPPRLPRPRPRPGWHPRP | 0.027
130 | RRIRERPPRLPRPRPRPGWLPRP | 0.256
131 | RRIRERPPRLPRPRPRPGYHPRP | -0.502
132 | RRIRERPPRLPRPRPRPGYRPRP | -0.408
133 | RRIRERPPRLPRPRPRPGYTPRP | 0.0628
134 | RRIRERPPRLPRPRPRPHCNPRP | -1.07
135 | RRIRERPPRLPRPRPRPHCRPRP | -0.168
136 | RRIRERPPRLPRPRPRPHDAPRP | -0.437
137 | RRIRERPPRLPRPRPRPHDMPRP | -0.0911
138 | RRIRERPPRLPRPRPRPHEDPRP | 0.111
139 | RRIRERPPRLPRPRPRPHFDPRP | -0.14
140 | RRIRERPPRLPRPRPRPHFMPRP | -0.221
141 | RRIRERPPRLPRPRPRPHGHPRP | 0.0257
142 | RRIRERPPRLPRPRPRPHHIPRP | -0.0669
143 | RRIRERPPRLPRPRPRPHHKPRP | -0.449
144 | RRIRERPPRLPRPRPRPHIPPRP | -0.682
145 | RRIRERPPRLPRPRPRPHIQPRP | -0.705
146 | RRIRERPPRLPRPRPRPHLMPRP | 1.19
147 | RRIRERPPRLPRPRPRPHLPPRP | -0.136
148 | RRIRERPPRLPRPRPRPHNFPRP | 0.0533
149 | RRIRERPPRLPRPRPRPHNIPRP | -0.274
150 | RRIRERPPRLPRPRPRPHNLPRP | -0.47
